B4: rhodamine-labeled 22-residue carboxy-terminal NPT2A peptide (peptide)
peptide: {5(6)‑carboxytetramethylrhodamine}-ELPPATPSPRLALPAHHNATRL
notes: type II sodium-dependent phosphate co-transporter (NPT2A, SLC34A1), 22-residue carboxy-terminal fragment; also called labeled NPT2A peptide; source: synthetic peptide (solid phase, Fmoc; HPLC purified)

Settings in all cases: both partners purified
Experiment [1] concerns the target B4. The experiment in a line: fluorescence polarisation; solution phase direct binding, PDZ construct varied against 0.5 uM or 1 uM rhodamine-labeled NPT2A peptide; FP buffer (25 mM NaH2PO4, 10 mM NaCl, pH 7.4, 1 mM DTT, 0.1 mg/ml bovine IgG, 0.5 mM Thesit); 25°C; anisotropy fitted to a 1:1 complex.
Experiment [2] deals with T1, NHERF1 PDZ1 H27N/E43D (1–120) (human, UniProt O14745 1-120, H27N | E43D).
T1 construct: The double mutant's plasmid is not described in the methods; also called His27Asn/Glu43Asp PDZ1; source: E. coli BL21 (DE3), purified (Ni-NTA-agarose)
T1 sequence (looked up): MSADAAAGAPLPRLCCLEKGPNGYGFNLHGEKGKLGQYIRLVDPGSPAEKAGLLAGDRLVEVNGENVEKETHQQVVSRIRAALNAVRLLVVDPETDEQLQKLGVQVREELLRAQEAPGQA
Briefly: ITC; 25°C; 10 mM Hepes (pH 7.5), 10 mM NaCl, 0.5 mM EDTA, 0.5 mM beta-mercaptoethanol; 25 uM PDZ protein in the cell, NPT2A (200–250 uM) titrated in 19 injections of 2 ul.

The target in experiment [3] is T2, NHERF1 PDZ1 (1–120) (human, UniProt O14745 1-120).
T2 construct: the methods describe PDZ1 (11-120) and PDZ1 (1-140) but no 1-120 construct, so 1-120 may be a misprint of 11-120; Host and purification are the general statement of the methods; also called WT PDZ1; source: E. coli BL21 (DE3), purified (Ni-NTA-agarose)
T2 sequence (looked up): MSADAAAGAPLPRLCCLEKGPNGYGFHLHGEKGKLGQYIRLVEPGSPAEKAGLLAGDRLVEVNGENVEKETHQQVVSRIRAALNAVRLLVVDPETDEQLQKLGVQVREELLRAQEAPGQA
The description is as above.

The target of experiment [4] is T3, NHERF1 PDZ1 H27N (1–120) (human, UniProt O14745 1-120, H27N).
T3 construct: the methods describe the mutants in PDZ1 (11-120), so 1-120 may be a misprint of 11-120; also called His27Asn; source: E. coli BL21 (DE3), purified (Ni-NTA-agarose)
T3 sequence (looked up): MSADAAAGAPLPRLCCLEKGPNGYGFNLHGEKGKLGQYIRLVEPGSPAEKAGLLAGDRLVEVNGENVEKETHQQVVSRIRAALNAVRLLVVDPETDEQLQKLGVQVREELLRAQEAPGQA
The experiment is described as above.

Experiment [5] concerns the target T4, NHERF1 PDZ1 E43D (1–120) (human, UniProt O14745 1-120, E43D).
T4 construct: the methods describe the mutants in PDZ1 (11-120), so 1-120 may be a misprint of 11-120; also called Glu43Asp; source: E. coli BL21 (DE3), purified (Ni-NTA-agarose)
T4 sequence (looked up): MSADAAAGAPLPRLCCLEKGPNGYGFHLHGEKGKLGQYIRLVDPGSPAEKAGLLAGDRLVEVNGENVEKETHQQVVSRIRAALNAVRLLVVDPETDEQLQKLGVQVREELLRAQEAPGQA
The experiment is described as above.

Experiment [6] addresses T5, NHERF1 PDZ1 (11–120) (human, UniProt O14745 11-120).
T5 construct: Na+/H+ Exchanger Regulatory Factor-1 (NHERF1, EBP50), human, PDZ1 construct, residues 11-120; also called WT PDZ1 (11–120); source: E. coli BL21 (DE3), purified (Ni-NTA-agarose)
T5 sequence (looked up): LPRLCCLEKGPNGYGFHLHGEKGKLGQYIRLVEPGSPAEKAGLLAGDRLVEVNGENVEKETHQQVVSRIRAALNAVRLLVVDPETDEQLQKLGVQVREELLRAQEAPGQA
Briefly: fluorescence polarisation; solution phase direct binding, PDZ construct varied against 0.5 uM or 1 uM rhodamine-labeled NPT2A peptide; FP buffer (25 mM NaH2PO4, 10 mM NaCl, pH 7.4, 1 mM DTT, 0.1 mg/ml bovine IgG, 0.5 mM Thesit); 25°C; anisotropy fitted to a 1:1 complex.

The target in experiment [7] is T6, NHERF1 PDZ1 (1–140) (human, UniProt O14745 1-140).
T6 construct: Na+/H+ Exchanger Regulatory Factor-1 (NHERF1, EBP50), human, PDZ1 construct, residues 1-140; Plasmid pET16-N1P1 provided by D. F. Mierke; also called WT PDZ1 (1–140); pET16-N1P1; source: E. coli BL21 (DE3), purified (Ni-NTA-agarose)
T6 sequence (looked up): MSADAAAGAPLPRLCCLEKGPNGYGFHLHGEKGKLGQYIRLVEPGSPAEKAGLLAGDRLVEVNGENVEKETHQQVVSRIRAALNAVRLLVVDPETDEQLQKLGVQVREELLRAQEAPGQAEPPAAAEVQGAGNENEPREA
The experiment is described as above.

The target in experiment [8] is T6, NHERF1 PDZ1 (1–140). Briefly: fluorescence polarisation; as a1 but at pH 5.5; 0.5 uM labeled NPT2A peptide, WT PDZ1 (1–140). Background: Fluorescence polarisation rises when a labelled molecule tumbles more slowly, as on binding a larger partner.
Experiment [9] deals with T6, NHERF1 PDZ1 (1–140). Briefly: fluorescence polarisation; as a1 but at pH 6.0; 0.5 uM labeled NPT2A peptide, WT PDZ1 (1–140).

Where no end group is shown, it is not given here.

As a reminder, the EC50 is the concentration at which the effect is half-maximal. In general, Kd refers to the constant that tells how readily two partners part at equilibrium. A low value points to tighter binding. In general, stoichiometry N refers to the number of molecules, sites or subunits per partner or assembly.

B1: NHERF1 PDZ2 D183E (domain or fragment, human, UniProt O14745 133-300, looked up)
chain: NENEPREADKSHPEQRELRPRLCTMKKGPSGYGFNLHSDKSKPGQFIRSVEPDSPAEASGLRAQDRIVEVNGVCMEGKQHGDVVSAIRAGGDETKLLVVDRETDEFFKKCRVIPSQEHLNGPLPVPFTNGEIQKENSREALAEAALESPRPALVRSASSDTSEELNSQ
notes: Na+/H+ Exchanger Regulatory Factor-1 (NHERF1, EBP50), human, PDZ2 construct, residues 133-300 (mutation introduced into pET16-N1P2), Asp183Glu; also called Asp183Glu PDZ2; single PDZ2 mutant; source: E. coli BL21 (DE3), purified (Ni-NTA-agarose)
B1 yielded a 50% effective concentration (EC50) in [1] of 20 ± 10 µM.

B2: NHERF1 PDZ2 N167H/D183E (domain or fragment, human, UniProt O14745 133-300, looked up)
chain: NENEPREADKSHPEQRELRPRLCTMKKGPSGYGFHLHSDKSKPGQFIRSVEPDSPAEASGLRAQDRIVEVNGVCMEGKQHGDVVSAIRAGGDETKLLVVDRETDEFFKKCRVIPSQEHLNGPLPVPFTNGEIQKENSREALAEAALESPRPALVRSASSDTSEELNSQ
notes: Na+/H+ Exchanger Regulatory Factor-1 (NHERF1, EBP50), human, PDZ2 construct, residues 133-300 (mutations introduced into pET16-N1P2), Asn167His and Asp183Glu; also called Asn167His/Asp183Glu PDZ2; double PDZ2 mutant; source: E. coli BL21 (DE3), purified (Ni-NTA-agarose)
B2 showed an EC50 in experiment [1] of 11.7 ± 2 µM.

B3: NPT2A peptide (ligand titrated in ITC) (peptide)
peptide: ELPPATPSPRLALPAHHNATRL
notes: type II sodium-dependent phosphate co-transporter (NPT2A, SLC34A1), 22-residue carboxy-terminal fragment; Kept apart from m1 for that reason; also called ligand NPT2A; source: synthetic peptide
Turning to B3, the dissociation constant (Kd) amounted to 17.9 ± 0.9 µM in [2], 3.1 ± 0.3 µM in experiment [3], 5.3 ± 0.5 µM in [4] and 10.4 ± 0.8 µM in experiment [5]. Also, the dH in experiment [2] is -5.8 ± 0.6 kcal/mol; in [3], -8.2 ± 0.8 kcal/mol; in [4], -7.5 ± 0.7 kcal/mol; in [5] it was -3 ± 0.3 kcal/mol. Besides, the “stoichiometry N” value in experiment [2] was 0.6; in experiment [3], 0.92; in experiment [4] it was 0.61; in experiment [5], 0.6.

Consider B4, for which the equilibrium dissociation constant (Kd) is 5.5 ± 0.6 µM in experiment [6], 1.7 ± 0.2 µM in experiment [7], 16.1 ± 3.3 µM in experiment [8] and 8 ± 1.8 µM in [9].

The values are drawn from PMC4466390, “Canonical and Noncanonical Sites Determine NPT2A Binding Selectivity to NHERF1 PDZ1” (PLoS ONE, 2015).
